Reference: patent US20150344570A1 (published 2015)

T1: FcγRIIb extracellular domain with C-terminal His tag (human, UniProt P31994 43-217)
T1 construct: extracellular domain; also called FcgRIIb; CD32B; not shown: His tag at the C terminus
T1 sequence (looked up): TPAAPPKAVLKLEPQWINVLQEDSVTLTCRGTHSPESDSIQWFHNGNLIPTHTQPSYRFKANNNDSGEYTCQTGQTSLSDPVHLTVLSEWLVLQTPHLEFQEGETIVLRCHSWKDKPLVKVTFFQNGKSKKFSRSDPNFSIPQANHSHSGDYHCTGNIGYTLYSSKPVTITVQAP

T2: FcγRIIb (human, UniProt P31994 43-217)
T2 construct: extracellular domain; Soluble extracellular domain with a C-terminal His tag, expressed in FreeStyle293 cells; also called FcgRIIb; 2b; not shown: His tag attached to the C terminus
T2 sequence (looked up): T1 sequence (looked up)

B1: GpH7-A5/GpH7-B3 variant G236_06M/GpL16-k0 (antibody, human IgG1, kappa)
heavy 1: not shown
heavy 2: not shown
light: DIVMTQSPLSLPVTPGEPASISCQASESLVHSNRNTYLHWYLQKPGQSPQLLIYKVSNRFSGVPDRFSGSGSGTDFTLKISRVEAEDVGVYYCSQNTHVPPTFGQGTKVEIERTVAAPSVFIFPPSDEQLKSGTASVVCLLNNFYPREAKVQWKVDNALQSGNSQESVTEQDSKDSTYSLSSTLTLSKADYEKHKVYACEVTHQGLSSPVTKSFNRGEC
notes: Heterodimerized anti-glypican-3 IgG1; mutation only in the GpH7-B3 H chain; also called He Ab
B2: GpH7-A5/GpH7-B3 variant G236_11K/GpL16-k0 (antibody, human IgG1, kappa)
heavy 1: not shown
heavy 2: not shown
light: B1 light
notes: as for B1
B3: GpH7-A5/GpH7-B3 variant G236_15Y/GpL16-k0 (antibody, human IgG1, kappa)
heavy 1: not shown
heavy 2: not shown
light: B1 light
notes: as for B1
B4: GpH7-A5/GpH7-B3 variant G236_14T/GpL16-k0 (antibody, human IgG1, kappa)
heavy 1: not shown
heavy 2: not shown
light: B1 light
notes: as for B1
B5: GpH7-A5/GpH7-B3 variant G236_08L/GpL16-k0 (antibody, human IgG1, kappa)
heavy 1: not shown
heavy 2: not shown
light: B1 light
notes: as for B1
B6: GpH7-A5/GpH7-B3 variant G236_12R/GpL16-k0 (antibody, human IgG1, kappa)
heavy 1: not shown
heavy 2: not shown
light: B1 light
notes: as for B1
B7: GpH7-A5/GpH7-B3 variant G236_07I/GpL16-k0 (antibody, human IgG1, kappa)
heavy 1: not shown
heavy 2: not shown
light: B1 light
notes: as for B1
B8: GpH7-A5/GpH7-B3 variant S239_19Q/GpL16-k0 (antibody, human IgG1, kappa)
heavy 1: not shown
heavy 2: not shown
light: B1 light
notes: Heterodimerized anti-glypican-3 IgG1; the mutation is in the GpH7-B3 chain only; also called He Ab
B9: GpH7-A5/GpH7-B3 variant S239_03V/GpL16-k0 (antibody, human IgG1, kappa)
heavy 1: not shown
heavy 2: not shown
light: B1 light
notes: as for B8
B10: GpH7-A5/GpH7-B3 variant P238_20W/GpL16-k0 (antibody, human IgG1, kappa)
heavy 1: not shown
heavy 2: not shown
light: B1 light
notes: as for B8
B11: GpH7-A5/GpH7-B3 variant P238_09D/GpL16-k0 (antibody, human IgG1, kappa)
heavy 1: not shown
heavy 2: not shown
light: B1 light
notes: as for B8
B12: GpH7-A5/GpH7-B3 variant P238_11K/GpL16-k0 (antibody, human IgG1, kappa)
heavy 1: not shown
heavy 2: not shown
light: B1 light
notes: as for B8
B13: GpH7-A5/GpH7-B3 variant P238_16H/GpL16-k0 (antibody, human IgG1, kappa)
heavy 1: not shown
heavy 2: not shown
light: B1 light
notes: as for B8
B14: GpH7-A5/GpH7-B3 variant S239_04F/GpL16-k0 (antibody, human IgG1, kappa)
heavy 1: not shown
heavy 2: not shown
light: B1 light
notes: as for B8
B15: GpH7-A5/GpH7-B3 variant P238_19Q/GpL16-k0 (antibody, human IgG1, kappa)
heavy 1: not shown
heavy 2: not shown
light: B1 light
notes: as for B8
B16: GpH7-A5/GpH7-B3 variant S239_11K/GpL16-k0 (antibody, human IgG1, kappa)
heavy 1: not shown
heavy 2: not shown
light: B1 light
notes: as for B8
B17: GpH7-A5/GpH7-B3 variant S239_12R/GpL16-k0 (antibody, human IgG1, kappa)
heavy 1: not shown
heavy 2: not shown
light: B1 light
notes: as for B8
B18: GpH7-A5/GpH7-B3 variant S239_05P/GpL16-k0 (antibody, human IgG1, kappa)
heavy 1: not shown
heavy 2: not shown
light: B1 light
notes: as for B8
B19: GpH7-A5/GpH7-B3 variant P238_12R/GpL16-k0 (antibody, human IgG1, kappa)
heavy 1: not shown
heavy 2: not shown
light: B1 light
notes: as for B8
B20: GpH7-A5/GpH7-B3 variant P238_15Y/GpL16-k0 (antibody, human IgG1, kappa)
heavy 1: not shown
heavy 2: not shown
light: B1 light
notes: as for B8
B21: GpH7-A5/GpH7-B3 variant S239_08L/GpL16-k0 (antibody, human IgG1, kappa)
heavy 1: not shown
heavy 2: not shown
light: B1 light
notes: as for B8
B22: GpH7-A5/GpH7-B3 variant P238_14T/GpL16-k0 (antibody, human IgG1, kappa)
heavy 1: not shown
heavy 2: not shown
light: B1 light
notes: as for B8
B23: GpH7-A5/GpH7-B3 variant S239_06M/GpL16-k0 (antibody, human IgG1, kappa)
heavy 1: not shown
heavy 2: not shown
light: B1 light
notes: as for B8
B24: GpH7-A5/GpH7-B3 variant P238_18N/GpL16-k0 (antibody, human IgG1, kappa)
heavy 1: not shown
heavy 2: not shown
light: B1 light
notes: as for B8
B25: GpH7-A5/GpH7-B3 variant P238_10E/GpL16-k0 (antibody, human IgG1, kappa)
heavy 1: not shown
heavy 2: not shown
light: B1 light
notes: as for B8
B26: GpH7-A5/GpH7-B3 variant S239_16H/GpL16-k0 (antibody, human IgG1, kappa)
heavy 1: not shown
heavy 2: not shown
light: B1 light
notes: as for B8
B27: GpH7-A5/GpH7-B3 variant P238_13S/GpL16-k0 (antibody, human IgG1, kappa)
heavy 1: not shown
heavy 2: not shown
light: B1 light
notes: as for B8
B28: GpH7-A5/GpH7-B3 variant P238_08L/GpL16-k0 (antibody, human IgG1, kappa)
heavy 1: not shown
heavy 2: not shown
light: B1 light
notes: as for B8
B29: GpH7-A5/GpH7-B3 variant S239_01G/GpL16-k0 (antibody, human IgG1, kappa)
heavy 1: not shown
heavy 2: not shown
light: B1 light
notes: Heterodimerized anti-glypican-3 IgG1; also called He Ab
B30: GpH7-A5/GpH7-B3 variant P238_07I/GpL16-k0 (antibody, human IgG1, kappa)
heavy 1: not shown
heavy 2: not shown
light: B1 light
notes: as for B8
B31: GpH7-A5/GpH7-B3 variant S239_07I/GpL16-k0 (antibody, human IgG1, kappa)
heavy 1: not shown
heavy 2: not shown
light: B1 light
notes: as for B8
B32: GpH7-A5/GpH7-B3 variant S239_15Y/GpL16-k0 (antibody, human IgG1, kappa)
heavy 1: not shown
heavy 2: not shown
light: B1 light
notes: as for B8

The binders below were run against T1, FcγRIIb extracellular domain with … (assay: SPR (Biacore), antibody captured, FcγR analyte; relative to GpH7-A5/GpH7-B3/GpL16-k0 = 100).

He/Con_2b	Binder
45.5 % of HeCon Ab	B1
49.8 % of HeCon Ab	B2
39.5 % of HeCon Ab	B3
57.8 % of HeCon Ab	B4
26.8 % of HeCon Ab	B5
6.8 % of HeCon Ab	B6
31 % of HeCon Ab	B7

The binders below were run against T3, FcγRIa extracellular domain with C-terminal His tag (human, UniProt P12314 16-292) in the same assay as above.
T3 construct: extracellular domain; also called FcgRI; CD64; not shown: His tag at the C terminus
T3 sequence (P12314 16-292): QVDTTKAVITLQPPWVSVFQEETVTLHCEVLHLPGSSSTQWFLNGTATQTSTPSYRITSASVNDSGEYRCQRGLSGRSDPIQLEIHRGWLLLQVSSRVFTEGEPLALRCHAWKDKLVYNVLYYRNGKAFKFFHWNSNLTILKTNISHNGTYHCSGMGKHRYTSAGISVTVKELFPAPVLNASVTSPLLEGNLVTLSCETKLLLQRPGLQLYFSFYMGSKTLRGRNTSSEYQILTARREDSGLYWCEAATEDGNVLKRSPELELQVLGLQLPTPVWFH

He/Con_1a	Binder
96.7 % of HeCon Ab	B1
71 % of HeCon Ab	B2
92.5 % of HeCon Ab	B3
92.2 % of HeCon Ab	B4
79.6 % of HeCon Ab	B5
63.1 % of HeCon Ab	B6
87.5 % of HeCon Ab	B7

The binders below were run against T3, FcγRIa extracellular domain with … (assay: SPR; He/Con_1a divided by He/Con_2b (FcγRIa against FcγRIIb)).

He_1a/2b (Ia/IIb) [ratio]	Binder
2.13	B1
1.42	B2
2.34	B3
1.59	B4
2.97	B5
9.3	B6
2.82	B7

Each binder was assayed against T4, FcγRIIIa (human, UniProt P08637 17-208) (assay: SPR; He/Con_3a (FcγRIIIa) divided by He/Con_2b (FcγRIIb)).
T4 construct: extracellular domain; Soluble extracellular domain with a C-terminal His tag; also called FcgRIIIa; 3a; not shown: His tag attached to the C terminus
T4 sequence (P08637 17-208): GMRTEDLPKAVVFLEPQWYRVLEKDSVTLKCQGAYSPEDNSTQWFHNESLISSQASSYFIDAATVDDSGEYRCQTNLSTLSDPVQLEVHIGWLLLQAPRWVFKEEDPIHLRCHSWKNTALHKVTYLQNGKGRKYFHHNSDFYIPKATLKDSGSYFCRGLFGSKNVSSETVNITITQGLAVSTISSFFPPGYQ

He_3a/2b (IIIa/IIb) [ratio]	Binder
0.66	B8
0.71	B9
0.4	B10
0.48	B11
0.57	B12
0.27	B13
0.57	B14
0.51	B15
0.48	B16
0.44	B17
0.15	B18
0.24	B19
0.3	B20
0.68	B21
0.55	B22
0.78	B23
0.55	B24
0.45	B25
0.59	B26
0.64	B27
0.37	B28
0.53	B29
0.35	B30
0.74	B31
0.73	B32

The binders below were run against T4, FcγRIIIa (assay: SPR (Biacore), antibody captured on chip, FcγR as analyte).

He/Con_3a	Binder
56.9 relative binding, GpH7-A5/GpH7-B3/GpL16-k0 = 100	B8
76.6 relative binding, GpH7-A5/GpH7-B3/GpL16-k0 = 100	B9
49.7 relative binding, GpH7-A5/GpH7-B3/GpL16-k0 = 100	B10
106 relative binding, GpH7-A5/GpH7-B3/GpL16-k0 = 100	B11
10.4 relative binding, GpH7-A5/GpH7-B3/GpL16-k0 = 100	B12
30.7 relative binding, GpH7-A5/GpH7-B3/GpL16-k0 = 100	B13
25.3 relative binding, GpH7-A5/GpH7-B3/GpL16-k0 = 100	B14
55.8 relative binding, GpH7-A5/GpH7-B3/GpL16-k0 = 100	B15
11.9 relative binding, GpH7-A5/GpH7-B3/GpL16-k0 = 100	B16
17 relative binding, GpH7-A5/GpH7-B3/GpL16-k0 = 100	B17
14.9 relative binding, GpH7-A5/GpH7-B3/GpL16-k0 = 100	B18
12.2 relative binding, GpH7-A5/GpH7-B3/GpL16-k0 = 100	B19
64.5 relative binding, GpH7-A5/GpH7-B3/GpL16-k0 = 100	B20
95.3 relative binding, GpH7-A5/GpH7-B3/GpL16-k0 = 100	B21
28 relative binding, GpH7-A5/GpH7-B3/GpL16-k0 = 100	B22
78.2 relative binding, GpH7-A5/GpH7-B3/GpL16-k0 = 100	B23
40.4 relative binding, GpH7-A5/GpH7-B3/GpL16-k0 = 100	B24
105 relative binding, GpH7-A5/GpH7-B3/GpL16-k0 = 100	B25
29.2 relative binding, GpH7-A5/GpH7-B3/GpL16-k0 = 100	B26
44.9 relative binding, GpH7-A5/GpH7-B3/GpL16-k0 = 100	B27
75.5 relative binding, GpH7-A5/GpH7-B3/GpL16-k0 = 100	B28
76.2 relative binding, GpH7-A5/GpH7-B3/GpL16-k0 = 100	B29
27.8 relative binding, GpH7-A5/GpH7-B3/GpL16-k0 = 100	B30
79.3 relative binding, GpH7-A5/GpH7-B3/GpL16-k0 = 100	B31
25.6 relative binding, GpH7-A5/GpH7-B3/GpL16-k0 = 100	B32

What follows are binders tested against T2, FcγRIIb in the same assay as above.

He/Con_2b	Binder
86.1 relative binding, GpH7-A5/GpH7-B3/GpL16-k0 = 100	B8
108 relative binding, GpH7-A5/GpH7-B3/GpL16-k0 = 100	B9
123 relative binding, GpH7-A5/GpH7-B3/GpL16-k0 = 100	B10
221 relative binding, GpH7-A5/GpH7-B3/GpL16-k0 = 100	B11
18.1 relative binding, GpH7-A5/GpH7-B3/GpL16-k0 = 100	B12
115 relative binding, GpH7-A5/GpH7-B3/GpL16-k0 = 100	B13
44.1 relative binding, GpH7-A5/GpH7-B3/GpL16-k0 = 100	B14
110 relative binding, GpH7-A5/GpH7-B3/GpL16-k0 = 100	B15
24.7 relative binding, GpH7-A5/GpH7-B3/GpL16-k0 = 100	B16
39.1 relative binding, GpH7-A5/GpH7-B3/GpL16-k0 = 100	B17
102 relative binding, GpH7-A5/GpH7-B3/GpL16-k0 = 100	B18
51.4 relative binding, GpH7-A5/GpH7-B3/GpL16-k0 = 100	B19
218 relative binding, GpH7-A5/GpH7-B3/GpL16-k0 = 100	B20
140 relative binding, GpH7-A5/GpH7-B3/GpL16-k0 = 100	B21
50.7 relative binding, GpH7-A5/GpH7-B3/GpL16-k0 = 100	B22
101 relative binding, GpH7-A5/GpH7-B3/GpL16-k0 = 100	B23
73.2 relative binding, GpH7-A5/GpH7-B3/GpL16-k0 = 100	B24
232 relative binding, GpH7-A5/GpH7-B3/GpL16-k0 = 100	B25
49.4 relative binding, GpH7-A5/GpH7-B3/GpL16-k0 = 100	B26
70.4 relative binding, GpH7-A5/GpH7-B3/GpL16-k0 = 100	B27
204 relative binding, GpH7-A5/GpH7-B3/GpL16-k0 = 100	B28
144 relative binding, GpH7-A5/GpH7-B3/GpL16-k0 = 100	B29
80 relative binding, GpH7-A5/GpH7-B3/GpL16-k0 = 100	B30
107 relative binding, GpH7-A5/GpH7-B3/GpL16-k0 = 100	B31
34.9 relative binding, GpH7-A5/GpH7-B3/GpL16-k0 = 100	B32
